Test results published in publication doi:10.1101/2022.10.03.510455.

Biological target: FLAG tagged TSC2 (UniProt P49815)
Test: single molecule pulldown

UniProt P49815, sequence (P49815 whole entry): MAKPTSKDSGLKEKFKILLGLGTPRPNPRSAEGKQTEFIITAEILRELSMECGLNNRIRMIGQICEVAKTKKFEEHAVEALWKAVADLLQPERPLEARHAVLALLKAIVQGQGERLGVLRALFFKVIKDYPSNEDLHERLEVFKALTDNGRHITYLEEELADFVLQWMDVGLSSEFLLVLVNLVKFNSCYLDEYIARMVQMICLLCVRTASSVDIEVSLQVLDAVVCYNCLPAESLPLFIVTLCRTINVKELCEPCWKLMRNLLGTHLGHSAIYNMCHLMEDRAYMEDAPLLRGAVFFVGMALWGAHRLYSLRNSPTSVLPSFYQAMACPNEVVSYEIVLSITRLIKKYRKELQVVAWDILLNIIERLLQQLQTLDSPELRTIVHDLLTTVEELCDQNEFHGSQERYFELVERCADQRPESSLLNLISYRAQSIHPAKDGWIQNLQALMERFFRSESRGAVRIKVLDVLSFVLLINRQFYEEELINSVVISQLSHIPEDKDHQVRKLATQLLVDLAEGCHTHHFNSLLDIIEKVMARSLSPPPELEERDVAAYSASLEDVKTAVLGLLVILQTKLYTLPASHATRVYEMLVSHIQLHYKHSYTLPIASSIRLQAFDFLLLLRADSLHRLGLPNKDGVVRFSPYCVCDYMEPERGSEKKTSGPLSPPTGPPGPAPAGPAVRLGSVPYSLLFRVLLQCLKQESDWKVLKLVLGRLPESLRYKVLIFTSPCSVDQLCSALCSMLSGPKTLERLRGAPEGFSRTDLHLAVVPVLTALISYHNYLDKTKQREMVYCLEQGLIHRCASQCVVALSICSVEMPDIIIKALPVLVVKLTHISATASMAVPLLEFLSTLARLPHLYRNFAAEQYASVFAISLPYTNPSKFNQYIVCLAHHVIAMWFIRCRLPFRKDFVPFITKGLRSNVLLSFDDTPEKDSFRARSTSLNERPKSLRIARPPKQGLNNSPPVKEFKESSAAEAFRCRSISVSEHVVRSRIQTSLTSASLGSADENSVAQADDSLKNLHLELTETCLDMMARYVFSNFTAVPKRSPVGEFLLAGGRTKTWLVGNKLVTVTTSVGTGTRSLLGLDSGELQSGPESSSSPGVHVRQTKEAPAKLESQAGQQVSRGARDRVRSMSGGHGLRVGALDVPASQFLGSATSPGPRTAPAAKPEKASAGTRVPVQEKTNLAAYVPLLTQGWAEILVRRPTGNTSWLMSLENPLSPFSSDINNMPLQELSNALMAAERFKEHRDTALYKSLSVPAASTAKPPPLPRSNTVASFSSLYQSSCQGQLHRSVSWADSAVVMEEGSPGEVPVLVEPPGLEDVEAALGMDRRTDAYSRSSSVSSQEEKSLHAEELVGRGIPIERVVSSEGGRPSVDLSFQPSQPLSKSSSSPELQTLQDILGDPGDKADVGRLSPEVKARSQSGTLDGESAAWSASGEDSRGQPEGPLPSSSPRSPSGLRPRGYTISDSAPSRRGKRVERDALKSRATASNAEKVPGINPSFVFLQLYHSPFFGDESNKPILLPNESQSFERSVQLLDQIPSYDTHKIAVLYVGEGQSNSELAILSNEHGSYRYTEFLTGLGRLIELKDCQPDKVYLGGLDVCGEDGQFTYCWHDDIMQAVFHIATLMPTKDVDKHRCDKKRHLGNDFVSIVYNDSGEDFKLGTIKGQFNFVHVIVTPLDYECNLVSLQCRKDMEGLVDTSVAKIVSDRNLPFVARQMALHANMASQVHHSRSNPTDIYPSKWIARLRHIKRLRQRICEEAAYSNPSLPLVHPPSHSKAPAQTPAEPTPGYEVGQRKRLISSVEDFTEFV

IC50: 0.5 nM
Substance: recombinant α-syn PFF (from UniProt P37840 1-140) (natural protein)
